# Reference: article PMC6997208, “Conversion of walnut tyrosinase into a catechol oxidase by site directed mutagenesis” (Scientific Reports, 2020)
# Columns and labels:
# Assay in all cases: spectrophotometric quinone formation
# Type in all cases: biochemical, Juglans regia
# [1] = substrate: NCCc1ccc(O)c(O)c1; conditions: 50 mM sodium phosphate pH 6.0, 2 mM SDS as activator, 25 °C, diphenolase
# Text: (§1) spectrophotometric quinone formation on jrPPO1-wt
# [2] = substrate: NCCc1ccc(O)cc1; conditions: 50 mM sodium phosphate pH 6.0, 2 mM SDS as activator, 25 °C, monophenolase
# Text: as §1
# [3] = substrate: N[C@@H](Cc1ccc(O)c(O)c1)C(=O)O; conditions: 50 mM sodium phosphate pH 6.0, 2 mM SDS as activator, 25 °C, diphenolase
# Text: as §1
# [4] = substrate: N[C@@H](Cc1ccc(O)cc1)C(=O)O; conditions: 50 mM sodium phosphate pH 6.0, 2 mM SDS as activator, 25 °C, monophenolase
# Text: as §1
Protein,Km [1] [mM],kcat [1] [s⁻¹],kcat/Km [1] [M⁻¹ s⁻¹],Km [2] [mM],kcat [2] [s⁻¹],kcat/Km [2] [M⁻¹ s⁻¹],Km [3] [mM],kcat [3] [s⁻¹],kcat/Km [3] [M⁻¹ s⁻¹],Km [4] [mM],kcat [4] [s⁻¹],kcat/Km [4] [M⁻¹ s⁻¹]
"jrPPO1-wt (Juglans regia; V207I) (protein, latent pro-enzyme (active domain + C-terminal domain) without transit peptide; E. coli BL21(DE3), pGEX-6P-1, N-terminal GST tag cut with HRV-3C protease; cloned from walnut leaf cDNA, Val107Ile versus FJ769240.1) DPVSAPELTLCSEADLPAGALPVNCCPPTSKKIKDFVLPSQNTPLRVRPAAHLVDNDYIAKYNKGIELMKSLPADDPRSFTQQANVHCAYCDGAYTQVGFPDLSLQIHECWLFFPFHRYYVYFFEKILGKLIGDPTFALPFWNWDSPPGMQLPSLYAVSNSAIYDPLRNANHQPPTIIDLDYGETSESTTTTDQVPSNLKIMYRQMVSGAKNPTLFFGSPYRAGDEPDPGAGTIESTPHNNIHLWTGDDTQPNIENMGNFYSAGRDPIFFAHHSNVDRMWTIWKTLGGKRKDITDPDWLNSSFFFYDENADPVRVKVKDCVDNTKLRYVYQDVEIPWLKTKPTPRKSRVKKVAKAFPAGHGGVAQAAETSSVKFPIVLDKVISTVVARPKKSRSKKEKDDEEEVLVIEGIEVERDIPVKFDVFINDEDDAPTGPGINTEFAGSFVSVPQQKQTKKKKTYLRIGISDLLEDLGAEDDDSVVVTLVPRFGKGKAIIGGIKIVLIG",0.75 ± 0.13,92.5 ± 7.8,123000 ± 24000,0.451 ± 0.084,24.7 ± 1.5,55000 ± 11000,6.2 ± 1.0,111 ± 8.8,18100 ± 3400,1.42 ± 0.37,6 ± 1.1,4300 ± 1400
"jrPPO1-wt (Juglans regia; N340K/V307I) (protein, latent pro-enzyme (active domain + C-terminal domain) without transit peptide; E. coli BL21(DE3), pGEX-6P-1, N-terminal GST tag cut with HRV-3C protease; cloned from walnut leaf cDNA, Val107Ile versus FJ769240.1) DPVSAPELTLCSEADLPAGALPVNCCPPTSKKIKDFVLPSQNTPLRVRPAAHLVDNDYIAKYNKGIELMKSLPADDPRSFTQQANVHCAYCDGAYTQVGFPDLSLQVHECWLFFPFHRYYVYFFEKILGKLIGDPTFALPFWNWDSPPGMQLPSLYAVSNSAIYDPLRNANHQPPTIIDLDYGETSESTTTTDQVPSNLKIMYRQMISGAKNPTLFFGSPYRAGDEPDPGAGTIESTPHKNIHLWTGDDTQPNIENMGNFYSAGRDPIFFAHHSNVDRMWTIWKTLGGKRKDITDPDWLNSSFFFYDENADPVRVKVKDCVDNTKLRYVYQDVEIPWLKTKPTPRKSRVKKVAKAFPAGHGGVAQAAETSSVKFPIVLDKVISTVVARPKKSRSKKEKDDEEEVLVIEGIEVERDIPVKFDVFINDEDDAPTGPGINTEFAGSFVSVPQQKQTKKKKTYLRIGISDLLEDLGAEDDDSVVVTLVPRFGKGKAIIGGIKIVLIG",19.8 ± 4.7,2.51 ± 0.4,132 ± 97,8.2 ± 1.4,0.0542 ± 0.0034,6.6 ± 1.2,–,–,–,–,–,–
"jrPPO1-wt (Juglans regia; L344R/N340T/V307I) (protein, latent pro-enzyme (active domain + C-terminal domain) without transit peptide; E. coli BL21(DE3), pGEX-6P-1, N-terminal GST tag cut with HRV-3C protease; cloned from walnut leaf cDNA, Val107Ile versus FJ769240.1) DPVSAPELTLCSEADLPAGALPVNCCPPTSKKIKDFVLPSQNTPLRVRPAAHLVDNDYIAKYNKGIELMKSLPADDPRSFTQQANVHCAYCDGAYTQVGFPDLSLQVHECWLFFPFHRYYVYFFEKILGKLIGDPTFALPFWNWDSPPGMQLPSLYAVSNSAIYDPLRNANHQPPTIIDLDYGETSESTTTTDQVPSNLKIMYRQMISGAKNPTLFFGSPYRAGDEPDPGAGTIESTPHTNIHRWTGDDTQPNIENMGNFYSAGRDPIFFAHHSNVDRMWTIWKTLGGKRKDITDPDWLNSSFFFYDENADPVRVKVKDCVDNTKLRYVYQDVEIPWLKTKPTPRKSRVKKVAKAFPAGHGGVAQAAETSSVKFPIVLDKVISTVVARPKKSRSKKEKDDEEEVLVIEGIEVERDIPVKFDVFINDEDDAPTGPGINTEFAGSFVSVPQQKQTKKKKTYLRIGISDLLEDLGAEDDDSVVVTLVPRFGKGKAIIGGIKIVLIG",6.6 ± 1.5,0.789 ± 0.079,122 ± 26,–,–,–,13.1 ± 3.3,0.18 ± 0.027,12.9 ± 4,–,–,–
"jrPPO1-wt (Juglans regia; L344R/V307I) (protein, latent pro-enzyme (active domain + C-terminal domain) without transit peptide; E. coli BL21(DE3), pGEX-6P-1, N-terminal GST tag cut with HRV-3C protease; cloned from walnut leaf cDNA, Val107Ile versus FJ769240.1) DPVSAPELTLCSEADLPAGALPVNCCPPTSKKIKDFVLPSQNTPLRVRPAAHLVDNDYIAKYNKGIELMKSLPADDPRSFTQQANVHCAYCDGAYTQVGFPDLSLQVHECWLFFPFHRYYVYFFEKILGKLIGDPTFALPFWNWDSPPGMQLPSLYAVSNSAIYDPLRNANHQPPTIIDLDYGETSESTTTTDQVPSNLKIMYRQMISGAKNPTLFFGSPYRAGDEPDPGAGTIESTPHNNIHRWTGDDTQPNIENMGNFYSAGRDPIFFAHHSNVDRMWTIWKTLGGKRKDITDPDWLNSSFFFYDENADPVRVKVKDCVDNTKLRYVYQDVEIPWLKTKPTPRKSRVKKVAKAFPAGHGGVAQAAETSSVKFPIVLDKVISTVVARPKKSRSKKEKDDEEEVLVIEGIEVERDIPVKFDVFINDEDDAPTGPGINTEFAGSFVSVPQQKQTKKKKTYLRIGISDLLEDLGAEDDDSVVVTLVPRFGKGKAIIGGIKIVLIG",2.36 ± 0.41,24.9 ± 1.6,10600 ± 2000,2.68 ± 0.53,1.62 ± 0.09,600 ± 120,–,–,–,–,–,–
"jrPPO1-wt (Juglans regia; L344R/N340K/V307I) (protein, latent pro-enzyme (active domain + C-terminal domain) without transit peptide; E. coli BL21(DE3), pGEX-6P-1, N-terminal GST tag cut with HRV-3C protease; cloned from walnut leaf cDNA, Val107Ile versus FJ769240.1) DPVSAPELTLCSEADLPAGALPVNCCPPTSKKIKDFVLPSQNTPLRVRPAAHLVDNDYIAKYNKGIELMKSLPADDPRSFTQQANVHCAYCDGAYTQVGFPDLSLQVHECWLFFPFHRYYVYFFEKILGKLIGDPTFALPFWNWDSPPGMQLPSLYAVSNSAIYDPLRNANHQPPTIIDLDYGETSESTTTTDQVPSNLKIMYRQMISGAKNPTLFFGSPYRAGDEPDPGAGTIESTPHKNIHRWTGDDTQPNIENMGNFYSAGRDPIFFAHHSNVDRMWTIWKTLGGKRKDITDPDWLNSSFFFYDENADPVRVKVKDCVDNTKLRYVYQDVEIPWLKTKPTPRKSRVKKVAKAFPAGHGGVAQAAETSSVKFPIVLDKVISTVVARPKKSRSKKEKDDEEEVLVIEGIEVERDIPVKFDVFINDEDDAPTGPGINTEFAGSFVSVPQQKQTKKKKTYLRIGISDLLEDLGAEDDDSVVVTLVPRFGKGKAIIGGIKIVLIG",6.8 ± 1.3,0.029 ± 0.002,4.28 ± 0.85,–,–,–,16.5 ± 4.8,0.104 ± 0.019,6 ± 2.1,–,–,–
"jrPPO1-wt (Juglans regia; F360G/V307I) (protein, latent pro-enzyme (active domain + C-terminal domain) without transit peptide; E. coli BL21(DE3), pGEX-6P-1, N-terminal GST tag cut with HRV-3C protease; cloned from walnut leaf cDNA, Val107Ile versus FJ769240.1) DPVSAPELTLCSEADLPAGALPVNCCPPTSKKIKDFVLPSQNTPLRVRPAAHLVDNDYIAKYNKGIELMKSLPADDPRSFTQQANVHCAYCDGAYTQVGFPDLSLQVHECWLFFPFHRYYVYFFEKILGKLIGDPTFALPFWNWDSPPGMQLPSLYAVSNSAIYDPLRNANHQPPTIIDLDYGETSESTTTTDQVPSNLKIMYRQMISGAKNPTLFFGSPYRAGDEPDPGAGTIESTPHNNIHLWTGDDTQPNIENMGNGYSAGRDPIFFAHHSNVDRMWTIWKTLGGKRKDITDPDWLNSSFFFYDENADPVRVKVKDCVDNTKLRYVYQDVEIPWLKTKPTPRKSRVKKVAKAFPAGHGGVAQAAETSSVKFPIVLDKVISTVVARPKKSRSKKEKDDEEEVLVIEGIEVERDIPVKFDVFINDEDDAPTGPGINTEFAGSFVSVPQQKQTKKKKTYLRIGISDLLEDLGAEDDDSVVVTLVPRFGKGKAIIGGIKIVLIG",1.2 ± 0.4,7.36 ± 0.98,5900 ± 2200,3.05 ± 0.72,0.323 ± 0.025,103 ± 26,–,–,–,–,–,–
